Results published in patent US20210388087A1 (Chugai, published 2021).
Substitutions are numbered along the chain they refer to. Values belong to the binder of their own block, whether it stands above or below them.

Biological target: T1, CD3 epsilon homodimer protein (UniProt P07766 23-126)
T1 construct: also called CD3 (CD3 epsilon)
Experiment: SPR Biacore T200, CD3e homodimer on chip, vs unaltered GLS3000 antibody

T1 sequence (P07766 23-126): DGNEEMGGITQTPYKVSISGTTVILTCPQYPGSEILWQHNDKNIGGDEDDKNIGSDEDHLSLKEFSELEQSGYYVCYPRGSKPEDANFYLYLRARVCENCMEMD

B1: GLS3000 N30G (antibody, name in Kabat numbering, V domains shown)
VH: QVQLVESGGGVVQPGRSLRLSCAASGFTFSNAWMHWVRQAPGKGLEWVAQIKAKSNNYATYYAESVKGRFTISRDDSKNSLYLQMNSLKTEDTAVYYCRYVHYGAYYGVDAWGQGTTVTVSS
VL: DIVMTQSPLSLPVTPGEPASISCRSSQSLVHSNRGTYLHWYQQKPGQAPRLLIYKVSNRFSGVPDRFSGSGSGTDFTLKISRVEAEDVGVYYCGQGTQVPYTFGQGTKLEIK
notes: one-arm IgG as m2
ratio of amounts bound (Z=Y/X): 0.47

B2: GLS3000 N30H (antibody, name in Kabat numbering, V domains shown)
VH: B1 VH
VL: B1 VL with G35H
notes: one-arm IgG as m2
ratio of amounts bound (Z=Y/X): 0.98

B3: GLS3000 N30Q (antibody, name in Kabat numbering, V domains shown)
VH: B1 VH
VL: B1 VL with G35Q
notes: one-arm IgG as m2
ratio of amounts bound (Z=Y/X): 0.87

B4: GLS3000 N30R (antibody, name in Kabat numbering, V domains shown)
VH: B1 VH
VL: B1 VL with G35R
notes: one-arm IgG as m2
ratio of amounts bound (Z=Y/X): 1.86

B5: GLS3000 N53I (antibody, name in Kabat numbering, V domains shown)
VH: B1 VH
VL: B1 VL with G35N, N58I
notes: one-arm IgG as m2
ratio of amounts bound (Z=Y/X): 0.5

B6: GLS3000 N53M (antibody, name in Kabat numbering, V domains shown)
VH: B1 VH
VL: B1 VL with G35N, N58M
notes: one-arm IgG as m2
ratio of amounts bound (Z=Y/X): 0.62

B7: GLS3000 N53Q (antibody, name in Kabat numbering, V domains shown)
VH: B1 VH
VL: B1 VL with G35N, N58Q
notes: one-arm IgG as m2
ratio of amounts bound (Z=Y/X): 0.77

B9: GLS3000 N30Y (antibody, name in Kabat numbering, V domains shown)
VH: B1 VH
VL: B1 VL with G35Y
notes: one-arm IgG as m2
ratio of amounts bound (Z=Y/X): 1.04

B10: GLS3000 N30P (antibody, name in Kabat numbering, V domains shown)
VH: B1 VH
VL: B1 VL with G35P
notes: one-arm IgG as m2
ratio of amounts bound (Z=Y/X): 0.31

B12: GLS3000 N53L (antibody, name in Kabat numbering, V domains shown)
VH: B1 VH
VL: B1 VL with G35N, N58L
notes: one-arm IgG as m2
ratio of amounts bound (Z=Y/X): 0.56

B13: GLS3000 N53G (antibody, name in Kabat numbering, V domains shown)
VH: B1 VH
VL: B1 VL with G35N, N58G
notes: one-arm IgG as m2
ratio of amounts bound (Z=Y/X): 0.76

B15: GLS3000 N30L (antibody, name in Kabat numbering, V domains shown)
VH: B1 VH
VL: B1 VL with G35L
notes: one-arm IgG as m2
ratio of amounts bound (Z=Y/X): 0.7

B18: GLS3000 N53K (antibody, name in Kabat numbering, V domains shown)
VH: B1 VH
VL: B1 VL with G35N, N58K
notes: one-arm IgG as m2
ratio of amounts bound (Z=Y/X): 1.08

B20: GLS3000 N30V (antibody, name in Kabat numbering, V domains shown)
VH: B1 VH
VL: B1 VL with G35V
notes: one-arm IgG as m2
ratio of amounts bound (Z=Y/X): 0.61

B21: GLS3000 N53E (antibody, name in Kabat numbering, V domains shown)
VH: B1 VH
VL: B1 VL with G35N, N58E
notes: one-arm IgG as m2
ratio of amounts bound (Z=Y/X): 0.54

B22: GLS3000 N30W (antibody, name in Kabat numbering, V domains shown)
VH: B1 VH
VL: B1 VL with G35W
notes: one-arm IgG as m2
ratio of amounts bound (Z=Y/X): 0.99

B26: GLS3000 N30S (antibody, name in Kabat numbering, V domains shown)
VH: B1 VH
VL: B1 VL with G35S
notes: one-arm IgG as m2
ratio of amounts bound (Z=Y/X): 0.29

B28: GLS3000 N53A (antibody, name in Kabat numbering, V domains shown)
VH: B1 VH
VL: B1 VL with G35N, N58A
notes: one-arm IgG as m2
ratio of amounts bound (Z=Y/X): 0.61

B29: GLS3000 N53T (antibody, name in Kabat numbering, V domains shown)
VH: B1 VH
VL: B1 VL with G35N, N58T
notes: one-arm IgG as m2
ratio of amounts bound (Z=Y/X): 0.56

B31: GLS3000 N30M (antibody, name in Kabat numbering, V domains shown)
VH: B1 VH
VL: B1 VL with G35M
notes: one-arm IgG as m2
ratio of amounts bound (Z=Y/X): 0.8

B32: GLS3000 N53S (antibody, name in Kabat numbering, V domains shown)
VH: B1 VH
VL: B1 VL with G35N, N58S
notes: one-arm IgG as m2
ratio of amounts bound (Z=Y/X): 0.69

B33: GLS3000 N53H (antibody, name in Kabat numbering, V domains shown)
VH: B1 VH
VL: B1 VL with G35N, N58H
notes: one-arm IgG as m2
ratio of amounts bound (Z=Y/X): 1.18

B34: GLS3000 N53R (antibody, name in Kabat numbering, V domains shown)
VH: B1 VH
VL: B1 VL with G35N, N58R
notes: one-arm IgG as m2
ratio of amounts bound (Z=Y/X): 1.58

B36: GLS3000 N30T (antibody, name in Kabat numbering, V domains shown)
VH: B1 VH
VL: B1 VL with G35T
notes: one-arm IgG as m2
ratio of amounts bound (Z=Y/X): 0.29

B37: GLS3000 N53V (antibody, name in Kabat numbering, V domains shown)
VH: B1 VH
VL: B1 VL with G35N, N58V
notes: one-arm IgG as m2
ratio of amounts bound (Z=Y/X): 0.56

B38: GLS3000 N53P (antibody, name in Kabat numbering, V domains shown)
VH: B1 VH
VL: B1 VL with G35N, N58P
notes: one-arm IgG as m2
ratio of amounts bound (Z=Y/X): 0.81

B39: GLS3000 N30I (antibody, name in Kabat numbering, V domains shown)
VH: B1 VH
VL: B1 VL with G35I
notes: one-arm IgG as m2
ratio of amounts bound (Z=Y/X): 0.61

B40: GLS3000 N53D (antibody, name in Kabat numbering, V domains shown)
VH: B1 VH
VL: B1 VL with G35N, N58D
notes: one-arm IgG as m2
ratio of amounts bound (Z=Y/X): 0.34

B42: GLS3000 N53F (antibody, name in Kabat numbering, V domains shown)
VH: B1 VH
VL: B1 VL with G35N, N58F
notes: one-arm IgG as m2
ratio of amounts bound (Z=Y/X): 0.69

B44: GLS3000 N30K (antibody, name in Kabat numbering, V domains shown)
VH: B1 VH
VL: B1 VL with G35K
notes: one-arm IgG as m2
ratio of amounts bound (Z=Y/X): 1.65

More lines, now with the values ahead:

ratio of amounts bound (Z=Y/X): 0.5
B8: GLS3000 Q90A (antibody, name in Kabat numbering, V domains shown)
VH: B1 VH
VL: B1 VL with G35N, Q95A
notes: one-arm IgG as m2

ratio of amounts bound (Z=Y/X): 0.86
B11: GLS3000 Q90E (antibody, name in Kabat numbering, V domains shown)
VH: B1 VH
VL: B1 VL with G35N, Q95E
notes: one-arm IgG as m2

ratio of amounts bound (Z=Y/X): 1.19
B14: GLS3000 Q27R (antibody, name in Kabat numbering, V domains shown)
VH: B1 VH
VL: B1 VL with Q27R, G35N
notes: one-arm IgG as m2

ratio of amounts bound (Z=Y/X): 0.24
B16: GLS3000 P95L (antibody, name in Kabat numbering, V domains shown)
VH: B1 VH
VL: B1 VL with G35N, P100L
notes: one-arm IgG as m2

ratio of amounts bound (Z=Y/X): 0.92
B17: GLS3000 Q27L (antibody, name in Kabat numbering, V domains shown)
VH: B1 VH
VL: B1 VL with Q27L, G35N
notes: one-arm IgG as m2

ratio of amounts bound (Z=Y/X): 0.37
B19: GLS3000 P95G (antibody, name in Kabat numbering, V domains shown)
VH: B1 VH
VL: B1 VL with G35N, P100G
notes: one-arm IgG as m2

ratio of amounts bound (Z=Y/X): 0.88
B23: GLS3000 Q27E (antibody, name in Kabat numbering, V domains shown)
VH: B1 VH
VL: B1 VL with Q27E, G35N
notes: one-arm IgG as m2

ratio of amounts bound (Z=Y/X): 0.63
B24: GLS3000 P95A (antibody, name in Kabat numbering, V domains shown)
VH: B1 VH
VL: B1 VL with G35N, P100A
notes: one-arm IgG as m2

ratio of amounts bound (Z=Y/X): 0.29
B25: GLS3000 Q27P (antibody, name in Kabat numbering, V domains shown)
VH: B1 VH
VL: B1 VL with Q27P, G35N
notes: one-arm IgG as m2

ratio of amounts bound (Z=Y/X): 0.19
B27: GLS3000 Q90D (antibody, name in Kabat numbering, V domains shown)
VH: B1 VH
VL: B1 VL with G35N, Q95D
notes: one-arm IgG as m2

ratio of amounts bound (Z=Y/X): 0.81
B30: GLS3000 N53W (antibody, name in Kabat numbering, V domains shown)
VH: B1 VH
VL: B1 VL with G35N, N58W
notes: one-arm IgG as m2

ratio of amounts bound (Z=Y/X): 0.67
B35: GLS3000 N53Y (antibody, name in Kabat numbering, V domains shown)
VH: B1 VH
VL: B1 VL with G35N, N58Y
notes: one-arm IgG as m2

ratio of amounts bound (Z=Y/X): 0.24
B41: GLS3000 P95D (antibody, name in Kabat numbering, V domains shown)
VH: B1 VH
VL: B1 VL with G35N, P100D
notes: one-arm IgG as m2

ratio of amounts bound (Z=Y/X): 0.85
B43: GLS3000 Q27D (antibody, name in Kabat numbering, V domains shown)
VH: B1 VH
VL: B1 VL with Q27D, G35N
notes: one-arm IgG as m2

ratio of amounts bound (Z=Y/X): 0.39
B45: GLS3000 P95E (antibody, name in Kabat numbering, V domains shown)
VH: B1 VH
VL: B1 VL with G35N, P100E
notes: one-arm IgG as m2

ratio of amounts bound (Z=Y/X): 0.43
B46: GLS3000 P95S (antibody, name in Kabat numbering, V domains shown)
VH: B1 VH
VL: B1 VL with G35N, P100S
notes: one-arm IgG as m2
